Values quoted from earlier work in PMC11061240.
Where two headings read alike, the source gives them in different places.

Experiments:
FGL1 [1] = target: FGL1 (UniProt Q08830); assay: BLI
[2] = target: α-synuclein preformed fibrils (UniProt P37840)
FGL1 [3] = target: FGL1 (UniProt Q08830)

Sequence of UniProt Q08830 (Q08830 23-312): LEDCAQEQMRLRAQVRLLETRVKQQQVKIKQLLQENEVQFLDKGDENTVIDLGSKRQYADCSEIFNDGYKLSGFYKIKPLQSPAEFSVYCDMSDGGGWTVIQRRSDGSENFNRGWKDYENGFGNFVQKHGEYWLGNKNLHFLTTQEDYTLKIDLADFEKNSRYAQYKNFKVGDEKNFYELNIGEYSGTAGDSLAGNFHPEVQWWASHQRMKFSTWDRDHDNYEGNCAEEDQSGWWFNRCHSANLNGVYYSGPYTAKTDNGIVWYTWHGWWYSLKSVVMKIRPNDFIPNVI

| Substance | Kd (FGL1 [1]) [µM] | Kd [2] [µM] | Kd (FGL1 [3]) [µM] |
| --- | --- | --- | --- |
| LAG3 ECD (from UniProt Q61790) | 0.0015 |  |  |
| LAG3 (from UniProt P18627) |  | 0.08 | 7 |
